The data set has as its system MS2 coat protein. Put plainly: apparent KD of MS2 coat protein; designed switch direction (-1 OFF switch, 1 ON switch): -1; higher = weaker reporter binding. In a few lines:
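Stalled E. coli RNA polymerase transcribed designed RNA switches on Illumina chips, which were then titrated with SNAP-549-labelled MS2 coat protein, doubling from 0.7 or 1.5 nM to 3 µM. Steps lasted from 0.8–1.5 h at the lowest concentration to 10–20 min at the highest. The apparent KD is each design's median over clusters of curve-fitted normalised fluorescence.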

The mark [1] stands for this setting: input ligand: microRNA oligo, concentration not stated.
[2] abbreviates: Eterna round: R95, input ligand: FMN 200 uM.
Setting [3] is: Eterna round: R95, input ligand: microRNA oligo, concentration not stated.
The mark [4] stands for this setting: Eterna round: R95, input ligand: none.

“ACAUGAGGAUCACCCAUGUUCGGCUGGUCCGUUUCGGCUGUCGAGGAUAUAGUUCGGUGUCCGCGCUAGAAGGCGGGAGCUGGC [Aenatbe mod 64] (Eterna round: R96, puzzle: Exclusion NG 3)”: the “apparent KD of MS2 coat protein” value was determined as 167 nM (input ligand: FMN 200 uM), 39 nM under setting [1] and 68.5 nM (input ligand: none).
Taken in the same sequence, the figures for “ACAUGUAAUGUAGGAUAUUUUACACAUGAGGAUCACCCAUGUGACCAGAGGCAUUGCUAUGAGUAAAAGAAGGGUAUGUACAUG [Ex NG2 #58] (Eterna round: R96, puzzle: Exclusion NG 2)” were 47 nM, 27.8 nM and 42.3 nM.
Taken in the same sequence, the figures for “ACAUGUAUUGCAGGAUAUGGGACACAUGAGGAUCACCCAUGUGACUACAUGUCAUACCACGCGUCUCAGAAGGGUAUGUACAUG [Ex NG2 #39] (Eterna round: R96, puzzle: Exclusion NG 2)” were 27.7 nM, 14 nM and 21.5 nM.
Taken in the same sequence, the figures for “ACAUGUGUUGUAGGAUAUAGGACACAUGAGGAUCACCCAUGUGGAUUCAUGUCUAAGGAAGCGUCCUAGAAGGACGACAACAUG [Ex NG2 #26] (Eterna round: R96, puzzle: Exclusion NG 2)” were 29.1 nM, 16.3 nM and 20 nM.
“ACAUUGAUUGUGAGGAUAUCGAUGUGAUGGUAUGUCGAGAAGGCACAUGAGGAUCACCCAUGUGGGUUGUAGCA [JR_BMEx4_Sub035] (Eterna round: R97, puzzle: Brourd's mod of Exclusion 4)”: the “apparent KD of MS2 coat protein” value (input ligand: FMN 200 uM) was determined as 291 nM and the “apparent KD of MS2 coat protein” value (input ligand: none) came to 95.2 nM.
For “ACCAAUCAUGUAGGAUAUGCGUGGCGAAGCUAUGCAGAAGGACAUGAGGAUCACCCAUGUGCUUCCGUCUGCGUACAGACGGUA [Mat - Exclusion NG 1 - Mod of JL - D17] (Eterna round: R96, puzzle: Exclusion NG 1)”, the “apparent KD of MS2 coat protein” value is, setting by setting: (input ligand: FMN 200 uM) 49.2 nM; under setting [1], 38.3 nM; (input ligand: none) 92.3 nM.
As for “ACCAUGUCUGAGGAUAUGCAAGCGUACCACGCGGUAGAAGGCAGCACAUGAGGAUCACCCAUGUGGGUAUGCUA [Inanenqu] (puzzle: Exclusion 6)”, the “apparent KD of MS2 coat protein” value runs as follows: under setting [2], 15.3 nM; under setting [3], 9.92 nM; under setting [4], 14.8 nM.
Regarding “ACCGAUGUGCAAGGAUAUGACAUGAGGAUCACCCAUGUCAAAACAAGAAGAACGGGUGUGCCUCCUUAGAAGGUGCACAAACGA [Eternabot solution 2] (Eterna round: R96, puzzle: Exclusion NG 2)”, the “apparent KD of MS2 coat protein” value worked out at 26.1 nM (input ligand: FMN 200 uM), 17.1 nM under setting [1] and 24 nM (input ligand: none).
Consider “ACCGUGUGAGGAUAUCCGUAGCUGAGGCACCUCGCAAACAUGGAGAAGGCACAUGAGGAUCACCCAUGUGAACC [Eternabot (Original) Solution 27] (Eterna round: R97, puzzle: Exclusion 4)”, for which the “apparent KD of MS2 coat protein” value reads like this: (input ligand: FMN 200 uM) 47.1 nM; (input ligand: none) 23.8 nM.
For “ACCUCACAUGAGGAUCACCCAUGUCAGGAUAUAAUUUCAAACAUCAAUCGCGGCGCUGAGAGAAGGGUCAAAAC (Eterna round: R97, puzzle: Exclusion 1)”, in that order: 15.7 nM and 15.9 nM.
For “ACCUCACUUGAGGAUCACCCAAGUCAGGAUAUACUCGUUUGCCGAAAGACGCGGCAUUGUAGAAGGGACGGGUU [Raortiza] (Eterna round: R97, puzzle: Exclusion 1)”, in that order: 26.6 nM and 15.5 nM.
As to “ACCUUACUGGUCAGGAUAUACAGUCUUUGGUGUGUGUAGAAGGGACAUGAGGAUCACCCAUGUAGGUUGCAGUA [alecazam60] (Eterna round: R97, puzzle: Brourd's mod of Exclusion 4)”, the “apparent KD of MS2 coat protein” value (input ligand: FMN 200 uM) stood at 77.6 nM and the “apparent KD of MS2 coat protein” value (input ligand: none) came out at 67.7 nM.
As to “ACGAUGAUCGAAAAGUGUAAAUCGACAUGAGGAUCACCCAUGUAGGAUAUGGCUACGAAAAGUAGUCAGAAGGGCAUGUCAUCA [3 Av 11 mod - 1] (Eterna round: R96, puzzle: Exclusion NG 3)”, the “apparent KD of MS2 coat protein” value (input ligand: FMN 200 uM) worked out at 36.9 nM, the “apparent KD of MS2 coat protein” value under setting [1] amounted to 25.7 nM and the “apparent KD of MS2 coat protein” value (input ligand: none) amounted to 31.1 nM.
As for “ACGCAACAUGAGGAUCACCCAUGUCAGGAUAUCCGGCGAAAACCCAAGAAGGGAAACCGGAGAAGGGACAAAGG [ChP 04-04-2015 #1] (puzzle: Exclusion 1)”, the “apparent KD of MS2 coat protein” value under setting [2] amounted to 134 nM, the “apparent KD of MS2 coat protein” value under setting [3] came to 181 nM and the “apparent KD of MS2 coat protein” value under setting [4] worked out at 189 nM.
For the sequence “ACGCAUUGCCUUUGGUAGUGCGUAACAUGAGGAUCACCCAUGUAGGAUAUGGUAGGCUUUGCUUACCAGAAGGACAUUAUAAAC [Mat - Exclusion NG 3 - Mod of JL - D9] (Eterna round: R96, puzzle: Exclusion NG 3)”, the “apparent KD of MS2 coat protein” value under setting [1] worked out at 21.9 nM.
Consider “ACGCAUUGCCUUUGGUAGUGCGUAACAUGAGGAUCACCCAUGUAGGAUAUGGUAGGCUUUGCUUACCAGAAGGACAUUGUUGAU [Omei mod of JL ENG3 1.03] (Eterna round: R96, puzzle: Exclusion NG 3)”, for which the “apparent KD of MS2 coat protein” value worked out at 220 nM (input ligand: FMN 200 uM), 107 nM under setting [1] and 130 nM (input ligand: none).
“ACGCAUUGCCUUUGGUAGUGCGUUACAUGAGGAUCACCCAUGUAGGAUAUGGUAGGCAAAGCUUACCAGAAGGACAUGAUAAUU [Mat - Exclusion NG 3 - Mod of JL - D5] (Eterna round: R96, puzzle: Exclusion NG 3)”: under setting [1], the “apparent KD of MS2 coat protein” value is 41.8 nM.
Take “ACGCGUGGCUAGGAUAUCGAGGAAUCUAGCCAGCGAGAAGGAGCCACAUGAGGAUCACCCAUGUGGUGAUCCUC [jl-ex6-4.65 ViennaUCT mod] (Eterna round: R97, puzzle: Exclusion 6)”: the “apparent KD of MS2 coat protein” value (input ligand: FMN 200 uM) worked out at 6.76 nM and the “apparent KD of MS2 coat protein” value (input ligand: none) is 3.8 nM.
With “ACGGCGGCUCUAGGAUAUGACGACAUGAGGAUCACCCAUGUAGCCUUAGCCUUCACGAAAAUCGAUCAGAAGGAGAGCUCCAGG [Eternabot solution 19] (Eterna round: R96, puzzle: Exclusion NG 2)”, the “apparent KD of MS2 coat protein” value was 13.5 nM (input ligand: FMN 200 uM), 10.9 nM under setting [1] and 17.6 nM (input ligand: none).
In the case of “ACGUGACAUGAGGAUCACCCAUGUGAGGAUAUCUGGAUAAUUUUUAUUUUAGAUAUCCAGAGAAGGCACAUGUU [Ex1-3: 1Z] (puzzle: Exclusion 1)”, the “apparent KD of MS2 coat protein” value under setting [3] was 188 nM.
For the sequence “ACGUGAUAUCUGUCGGUGGACAUGAGGAUCACCCAUGUAAGCUUUUUGCUCAUCUUAUAACCCGGUGACAGACCUUC [Zaisbela] (puzzle: Sensor v3, turn-off variant 1)”, the “apparent KD of MS2 coat protein” value came out at 26.8 nM under setting [2], 413 nM under setting [3] and 29.5 nM under setting [4].
For the sequence “ACGUUUUUUGAGGAUAUGCGACGUUUUUUCGUCGUAGAAGGCGAUACAUGAGGAUCACCCAUGUUUAUGGGCAU [LRO-Ex6-18] (puzzle: Exclusion 6)”, the “apparent KD of MS2 coat protein” value under setting [3] turned out to be 129 nM.
As for “ACUAGAUGAGGAUAUGCAUGUUUUCGUGUUCUUCUAGAUUAACAUGAGGAUCACCCAUGUAGAAGGCGUCAUAU [Exclusion 2 - 29] (puzzle: Exclusion 2)”, the “apparent KD of MS2 coat protein” value under setting [3] stood at 45 nM.
Take “ACUAUACGAGGAUAUACUGACGGGCCUCAGGCAUCCAUCAGACAUGAGGAUCACCCAUGUAGAAGGCGUAUACU [JR_Exc002_Sub408] (Eterna round: R96, puzzle: Exclusion 2)”: the “apparent KD of MS2 coat protein” value reads like this: (input ligand: FMN 200 uM) 459 nM; under setting [1], 44.4 nM; (input ligand: none) 51.4 nM.
Turning to “ACUCAACAGUAGGAUAUCAUCAAACUAUUGUGAUGAGAAGGACUGACAUGAGGAUCACCCAUGUUAACGUGAUG [Mod of Brourd 2 - Jieux - Exclusion 6] (Eterna round: R97, puzzle: Exclusion 6)”, the “apparent KD of MS2 coat protein” value runs as follows: (input ligand: FMN 200 uM) 32.1 nM; (input ligand: none) 21.5 nM.
For “ACUCAACAUGAGGAUCACCCAUGUCAGGAUAUCUCUAUUUUGCGCGGGAGCAGAAUAGAGAGAAGGGACAACCU [Eternabot (Original) Solution 3] (Eterna round: R97, puzzle: Exclusion 1)”, in that order: 91.2 nM and 42.8 nM.
With “ACUCGACAUGAGGAUCACCCAUGUGAGGAUAUGGCCUGUAUGGCGUGAGCUGGAUCAAUCAGAAGGCGCGUGGG [salish99_ex1_r4_052] (Eterna round: R97, puzzle: Exclusion 1)”, the “apparent KD of MS2 coat protein” value reads like this: (input ligand: FMN 200 uM) 80.4 nM; (input ligand: none) 56 nM.
Turning to “ACUGGUCGAGGAUAUACAAUCGUGCUUCGGCACGUAAGGUCACAUGAGGAUCACCCAUGUAGAAGGCGACCAGU [E2/2-A3] (Eterna round: R97, puzzle: Exclusion 2)”, the “apparent KD of MS2 coat protein” value runs as follows: (input ligand: FMN 200 uM) 226 nM; (input ligand: none) 29.5 nM.
Regarding “ACUGGUCGAGGAUAUAUAUGACGUGCUUCGGCACGAAGAUCACAUGAGGAUCACCCAUGUAGAAGGCGACCAGU [E2/8-A2] (Eterna round: R97, puzzle: Exclusion 2)”, the “apparent KD of MS2 coat protein” value runs as follows: (input ligand: FMN 200 uM) 731 nM; (input ligand: none) 130 nM.
Consider “ACUUAUUGAGGAUAUACAUUAAUUUACAUGAGGAUCACCCAUGUUCUUCAAUGUAUAUAUGUAGAAGGCAGAAGAA [JL-ex5-4.30 Malcolm mod] (Eterna round: R97, puzzle: Exclusion 5)”, for which the “apparent KD of MS2 coat protein” value was 29.3 nM (input ligand: FMN 200 uM) and 14 nM (input ligand: none).
